Experimental data published in PMC7265326.

Target: PKD2-mNeonGreen (PKD2-mNG) in cilia (Chlamydomonas)
Assay: stepwise photobleaching

Question: Which results are given for “PKD2-mNeonGreen (PKD2-mNG) in cilia (domain or fragment)”?
Answer: photobleaching steps per particle: 2.8 steps; stoichiometry N: > 3
